{"source": "patent US11524977", "about": "(JIANGSU UNIVERSITY, dated 2022)"}
{"target": "Angiotensin converting enzyme (ACE EC 3.4.15.1)", "assay": "cell-based or functional assay", "units": {"IC50 of ACE inhibitory activity": "µg/mL"}}
{"binder": "LSLP", "note": "[Leu-Ser-Leu-Pro (LSLP)]", "IC50 of ACE inhibitory activity": 71.1}
{"binder": "APY", "note": "[Ala-Pro-Tyr (APY)]", "IC50 of ACE inhibitory activity": 19.1}
{"binder": "LQPP", "note": "[Leu-Gln-Pro-Pro (LQPP)]", "IC50 of ACE inhibitory activity": 14.2}
